The results in this text go back to publication PMC5714204.

Holding throughout (test): fluorescence polarization
For orientation: In fluorescence polarisation assays a small probe gives low polarisation when free and higher when bound to something large.

One data set concerns the target T1, RNase R 1H (Escherichia coli BL21(DE3), UniProt P21499 1-523+=AQPTGFLDSRIRRFQS+545-813, internal_change).
T1 sequence: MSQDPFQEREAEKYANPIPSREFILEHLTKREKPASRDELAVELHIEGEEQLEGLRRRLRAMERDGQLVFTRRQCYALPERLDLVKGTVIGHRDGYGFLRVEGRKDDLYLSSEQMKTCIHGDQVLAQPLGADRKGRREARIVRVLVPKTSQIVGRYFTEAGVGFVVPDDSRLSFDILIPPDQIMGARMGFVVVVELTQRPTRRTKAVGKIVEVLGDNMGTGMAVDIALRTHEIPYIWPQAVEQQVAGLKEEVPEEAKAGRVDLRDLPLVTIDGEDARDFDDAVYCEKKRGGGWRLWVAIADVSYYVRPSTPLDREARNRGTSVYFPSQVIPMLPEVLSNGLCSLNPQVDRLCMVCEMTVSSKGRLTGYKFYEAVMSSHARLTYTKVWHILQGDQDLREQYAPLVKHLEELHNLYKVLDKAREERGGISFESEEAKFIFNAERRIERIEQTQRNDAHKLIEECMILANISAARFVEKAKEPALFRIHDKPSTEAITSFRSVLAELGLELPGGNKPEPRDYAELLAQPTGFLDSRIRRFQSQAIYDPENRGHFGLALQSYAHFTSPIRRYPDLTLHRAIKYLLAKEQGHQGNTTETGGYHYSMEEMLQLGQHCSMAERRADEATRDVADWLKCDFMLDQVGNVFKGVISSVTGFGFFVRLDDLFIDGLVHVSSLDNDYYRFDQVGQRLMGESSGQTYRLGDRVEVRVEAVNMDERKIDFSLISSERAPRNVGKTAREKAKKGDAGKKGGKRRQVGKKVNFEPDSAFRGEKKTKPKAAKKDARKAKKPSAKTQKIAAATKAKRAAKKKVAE

A further data set has as its target T2, RNase R (full-length) (Escherichia coli BL21(DE3), UniProt P21499 1-813).
T2 sequence: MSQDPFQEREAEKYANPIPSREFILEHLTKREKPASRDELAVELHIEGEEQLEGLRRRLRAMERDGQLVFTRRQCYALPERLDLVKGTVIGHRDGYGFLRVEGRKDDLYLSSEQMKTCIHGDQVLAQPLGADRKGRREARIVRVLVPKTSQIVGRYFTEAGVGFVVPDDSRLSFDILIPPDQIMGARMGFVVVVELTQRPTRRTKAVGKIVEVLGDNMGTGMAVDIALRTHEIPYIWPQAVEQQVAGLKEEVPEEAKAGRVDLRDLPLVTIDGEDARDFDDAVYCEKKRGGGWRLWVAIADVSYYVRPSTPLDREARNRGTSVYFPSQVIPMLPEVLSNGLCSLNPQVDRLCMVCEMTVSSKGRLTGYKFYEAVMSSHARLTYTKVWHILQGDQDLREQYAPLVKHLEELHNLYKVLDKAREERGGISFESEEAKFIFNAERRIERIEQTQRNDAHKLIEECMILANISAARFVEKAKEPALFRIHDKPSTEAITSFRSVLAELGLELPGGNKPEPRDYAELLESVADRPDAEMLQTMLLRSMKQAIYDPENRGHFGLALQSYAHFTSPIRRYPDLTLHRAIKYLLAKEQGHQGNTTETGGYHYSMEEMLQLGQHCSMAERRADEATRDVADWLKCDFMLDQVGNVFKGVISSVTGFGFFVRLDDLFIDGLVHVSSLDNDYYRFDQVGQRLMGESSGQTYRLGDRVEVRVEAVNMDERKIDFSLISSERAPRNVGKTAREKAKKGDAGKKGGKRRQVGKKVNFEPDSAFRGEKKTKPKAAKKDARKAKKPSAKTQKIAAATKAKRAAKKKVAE

In a further data set the target is T3, RNase R ΔHTH-K (Escherichia coli BL21(DE3), UniProt P21499 87-725).
T3 sequence: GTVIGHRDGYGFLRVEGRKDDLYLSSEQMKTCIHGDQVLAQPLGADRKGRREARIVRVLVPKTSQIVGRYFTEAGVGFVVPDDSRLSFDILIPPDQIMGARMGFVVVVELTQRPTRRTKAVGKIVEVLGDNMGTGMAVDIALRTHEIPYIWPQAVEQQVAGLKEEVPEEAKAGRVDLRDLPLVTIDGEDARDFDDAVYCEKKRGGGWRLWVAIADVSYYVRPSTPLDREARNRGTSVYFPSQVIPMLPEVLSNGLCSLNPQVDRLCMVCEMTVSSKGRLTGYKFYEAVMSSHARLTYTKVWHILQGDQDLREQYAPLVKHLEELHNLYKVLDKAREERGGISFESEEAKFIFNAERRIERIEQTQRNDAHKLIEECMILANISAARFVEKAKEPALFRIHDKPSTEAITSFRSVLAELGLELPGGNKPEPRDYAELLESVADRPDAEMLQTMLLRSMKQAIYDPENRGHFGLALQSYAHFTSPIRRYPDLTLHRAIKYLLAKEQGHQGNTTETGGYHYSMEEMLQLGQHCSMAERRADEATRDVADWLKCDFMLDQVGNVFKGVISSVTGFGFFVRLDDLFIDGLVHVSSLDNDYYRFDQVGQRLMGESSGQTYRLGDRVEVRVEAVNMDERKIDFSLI

In a further data set the target is T4, RNase R Δ3H (Escherichia coli BL21(DE3), UniProt P21499 1-813, del487-545).
T4 sequence: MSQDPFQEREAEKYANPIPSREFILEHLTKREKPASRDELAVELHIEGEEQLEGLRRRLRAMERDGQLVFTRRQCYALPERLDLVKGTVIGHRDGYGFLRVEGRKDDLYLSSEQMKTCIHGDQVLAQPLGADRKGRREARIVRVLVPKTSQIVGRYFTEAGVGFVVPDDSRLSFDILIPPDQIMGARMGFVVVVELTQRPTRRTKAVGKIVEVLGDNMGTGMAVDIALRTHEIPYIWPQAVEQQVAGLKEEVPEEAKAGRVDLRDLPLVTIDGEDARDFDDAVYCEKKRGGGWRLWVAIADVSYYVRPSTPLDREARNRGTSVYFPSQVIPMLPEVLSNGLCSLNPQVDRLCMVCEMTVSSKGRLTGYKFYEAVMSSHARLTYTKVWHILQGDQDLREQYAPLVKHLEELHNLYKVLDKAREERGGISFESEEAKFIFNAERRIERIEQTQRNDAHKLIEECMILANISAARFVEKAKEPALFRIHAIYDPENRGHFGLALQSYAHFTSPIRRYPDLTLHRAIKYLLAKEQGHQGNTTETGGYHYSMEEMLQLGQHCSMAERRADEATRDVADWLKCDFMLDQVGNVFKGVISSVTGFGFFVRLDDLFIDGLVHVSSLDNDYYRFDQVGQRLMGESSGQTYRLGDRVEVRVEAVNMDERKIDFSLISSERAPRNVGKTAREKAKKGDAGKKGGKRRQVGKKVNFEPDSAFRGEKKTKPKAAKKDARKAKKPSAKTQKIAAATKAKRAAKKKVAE

B1: Cy3-poly(A)30 ssRNA (ssRNA)
RNA: AAAAAAAAAAAAAAAAAAAAAAAAAAAAAA
Regarding B1, the Kd (usually the constant that tells how readily two partners part at equilibrium) was found to be 9.9 ± 1 nM in the data set with RNase R 1H, 11.2 ± 1.2 nM with RNase R (full-length), 8.6 ± 1 nM in the data set with RNase R ΔHTH-K and 23.8 ± 2.6 nM with RNase R Δ3H.
